Results reported in patent US11402384B2 (Duke University, priority 2015, dated 2022).
Entries after “also recorded” stand apart in the source; their conditions may differ.

B1: E13C Acrylodan: tsGBP2_C13 (SEQ ID NO: 20) Acrylodan conjugate (conjugate)
chain: MKLEIFSWWAGDCGPALEALIRLYKQKYPGVEVINATVTGGAGVNAKAVLKTRMLGGDPPDTFQVHAGQELIGTWVVADRMEDLTSLFRQEGWLQAFPKGLIDLLSYKGGIWSVPVNIHRSNVMWYIPAKLKEWGVTPPKTWAEFLATAQTLKRKGLEAPLALGENWTQQHLWESVALATLGADGWNNLWSGKLKFTDPKAVAVWETFGKVLDAANKDAAGLSWQQAVDRVVQGKAAFNIMGDWAAGYMSTTLKLKPGTDFAWTPSPGTSGIFMMLSDSFGLPKGAKNRQNAINWLKLVGSKEGQDTFNPLKGSIAARLDSDPAKYNAYGQSAMKDWKSNRIVGSLVHGAVAPESFMSQFGTVMEIFLQSRNPQAAANAAQAIANQVGLGRGGSHHHHHH
modifications: Acrylodan conjugate; tsGBP2_C13 (13C substitution mutant with signal peptide replaced with M and a GGSHHHHHH at C-terminus)
B2: D12C Acrylodan: tsGBP2_C12 (SEQ ID NO: 19) Acrylodan conjugate (conjugate)
chain: MKLEIFSWWAGCEGPALEALIRLYKQKYPGVEVINATVTGGAGVNAKAVLKTRMLGGDPPDTFQVHAGQELIGTWVVADRMEDLTSLFRQEGWLQAFPKGLIDLLSYKGGIWSVPVNIHRSNVMWYIPAKLKEWGVTPPKTWAEFLATAQTLKRKGLEAPLALGENWTQQHLWESVALATLGADGWNNLWSGKLKFTDPKAVAVWETFGKVLDAANKDAAGLSWQQAVDRVVQGKAAFNIMGDWAAGYMSTTLKLKPGTDFAWTPSPGTSGIFMMLSDSFGLPKGAKNRQNAINWLKLVGSKEGQDTFNPLKGSIAARLDSDPAKYNAYGQSAMKDWKSNRIVGSLVHGAVAPESFMSQFGTVMEIFLQSRNPQAAANAAQAIANQVGLGRGGSHHHHHH
modifications: Acrylodan conjugate; tsGBP2_C12 (12C substitution mutant with signal peptide replaced with M and a GGSHHHHHH at C-terminus)
B3: D12C Badan: tsGBP2_C12 (SEQ ID NO: 19) Badan conjugate (conjugate)
chain: MKLEIFSWWAGCEGPALEALIRLYKQKYPGVEVINATVTGGAGVNAKAVLKTRMLGGDPPDTFQVHAGQELIGTWVVADRMEDLTSLFRQEGWLQAFPKGLIDLLSYKGGIWSVPVNIHRSNVMWYIPAKLKEWGVTPPKTWAEFLATAQTLKRKGLEAPLALGENWTQQHLWESVALATLGADGWNNLWSGKLKFTDPKAVAVWETFGKVLDAANKDAAGLSWQQAVDRVVQGKAAFNIMGDWAAGYMSTTLKLKPGTDFAWTPSPGTSGIFMMLSDSFGLPKGAKNRQNAINWLKLVGSKEGQDTFNPLKGSIAARLDSDPAKYNAYGQSAMKDWKSNRIVGSLVHGAVAPESFMSQFGTVMEIFLQSRNPQAAANAAQAIANQVGLGRGGSHHHHHH
modifications: Badan conjugate; tsGBP2_C12 (12C substitution mutant with signal peptide replaced with M and a GGSHHHHHH at C-terminus)
B4: G41C Acrylodan: tsGBP2_C41 (SEQ ID NO: 21) Acrylodan conjugate (conjugate)
chain: MKLEIFSWWAGDEGPALEALIRLYKQKYPGVEVINATVTGCAGVNAKAVLKTRMLGGDPPDTFQVHAGQELIGTWVVADRMEDLTSLFRQEGWLQAFPKGLIDLLSYKGGIWSVPVNIHRSNVMWYIPAKLKEWGVTPPKTWAEFLATAQTLKRKGLEAPLALGENWTQQHLWESVALATLGADGWNNLWSGKLKFTDPKAVAVWETFGKVLDAANKDAAGLSWQQAVDRVVQGKAAFNIMGDWAAGYMSTTLKLKPGTDFAWTPSPGTSGIFMMLSDSFGLPKGAKNRQNAINWLKLVGSKEGQDTFNPLKGSIAARLDSDPAKYNAYGQSAMKDWKSNRIVGSLVHGAVAPESFMSQFGTVMEIFLQSRNPQAAANAAQAIANQVGLGRGGSHHHHHH
modifications: Acrylodan conjugate; tsGBP2_C41 (41C substitution mutant with signal peptide replaced with M and a GGSHHHHHH at C-terminus)
B5: W244C Acrylodan: tsGBP2_C244 (SEQ ID NO: 30) Acrylodan conjugate (conjugate)
chain: MKLEIFSWWAGDEGPALEALIRLYKQKYPGVEVINATVTGGAGVNAKAVLKTRMLGGDPPDTFQVHAGQELIGTWVVADRMEDLTSLFRQEGWLQAFPKGLIDLLSYKGGIWSVPVNIHRSNVMWYIPAKLKEWGVTPPKTWAEFLATAQTLKRKGLEAPLALGENWTQQHLWESVALATLGADGWNNLWSGKLKFTDPKAVAVWETFGKVLDAANKDAAGLSWQQAVDRVVQGKAAFNIMGDCAAGYMSTTLKLKPGTDFAWTPSPGTSGIFMMLSDSFGLPKGAKNRQNAINWLKLVGSKEGQDTFNPLKGSIAARLDSDPAKYNAYGQSAMKDWKSNRIVGSLVHGAVAPESFMSQFGTVMEIFLQSRNPQAAANAAQAIANQVGLGRGGSHHHHHH
modifications: Acrylodan conjugate; tsGBP2_C244 (244C substitution mutant with signal peptide replaced with M and a GGSHHHHHH at C-terminus)
B6: G41C Badan: tsGBP2_C41 (SEQ ID NO: 21) Badan conjugate (conjugate)
chain: MKLEIFSWWAGDEGPALEALIRLYKQKYPGVEVINATVTGCAGVNAKAVLKTRMLGGDPPDTFQVHAGQELIGTWVVADRMEDLTSLFRQEGWLQAFPKGLIDLLSYKGGIWSVPVNIHRSNVMWYIPAKLKEWGVTPPKTWAEFLATAQTLKRKGLEAPLALGENWTQQHLWESVALATLGADGWNNLWSGKLKFTDPKAVAVWETFGKVLDAANKDAAGLSWQQAVDRVVQGKAAFNIMGDWAAGYMSTTLKLKPGTDFAWTPSPGTSGIFMMLSDSFGLPKGAKNRQNAINWLKLVGSKEGQDTFNPLKGSIAARLDSDPAKYNAYGQSAMKDWKSNRIVGSLVHGAVAPESFMSQFGTVMEIFLQSRNPQAAANAAQAIANQVGLGRGGSHHHHHH
modifications: Badan conjugate; tsGBP2_C41 (41C substitution mutant with signal peptide replaced with M and a GGSHHHHHH at C-terminus)
B7: A42C Acrylodan: tsGBP2_C42 (SEQ ID NO: 22) Acrylodan conjugate (conjugate)
chain: MKLEIFSWWAGDEGPALEALIRLYKQKYPGVEVINATVTGGCGVNAKAVLKTRMLGGDPPDTFQVHAGQELIGTWVVADRMEDLTSLFRQEGWLQAFPKGLIDLLSYKGGIWSVPVNIHRSNVMWYIPAKLKEWGVTPPKTWAEFLATAQTLKRKGLEAPLALGENWTQQHLWESVALATLGADGWNNLWSGKLKFTDPKAVAVWETFGKVLDAANKDAAGLSWQQAVDRVVQGKAAFNIMGDWAAGYMSTTLKLKPGTDFAWTPSPGTSGIFMMLSDSFGLPKGAKNRQNAINWLKLVGSKEGQDTFNPLKGSIAARLDSDPAKYNAYGQSAMKDWKSNRIVGSLVHGAVAPESFMSQFGTVMEIFLQSRNPQAAANAAQAIANQVGLGRGGSHHHHHH
modifications: Acrylodan conjugate; tsGBP2_C42 (42C substitution mutant with signal peptide replaced with M and a GGSHHHHHH at C-terminus)
B8: E13C Badan: tsGBP2_C13 (SEQ ID NO: 20) Badan conjugate (conjugate)
chain: MKLEIFSWWAGDCGPALEALIRLYKQKYPGVEVINATVTGGAGVNAKAVLKTRMLGGDPPDTFQVHAGQELIGTWVVADRMEDLTSLFRQEGWLQAFPKGLIDLLSYKGGIWSVPVNIHRSNVMWYIPAKLKEWGVTPPKTWAEFLATAQTLKRKGLEAPLALGENWTQQHLWESVALATLGADGWNNLWSGKLKFTDPKAVAVWETFGKVLDAANKDAAGLSWQQAVDRVVQGKAAFNIMGDWAAGYMSTTLKLKPGTDFAWTPSPGTSGIFMMLSDSFGLPKGAKNRQNAINWLKLVGSKEGQDTFNPLKGSIAARLDSDPAKYNAYGQSAMKDWKSNRIVGSLVHGAVAPESFMSQFGTVMEIFLQSRNPQAAANAAQAIANQVGLGRGGSHHHHHH
modifications: Badan conjugate; tsGBP2_C13 (13C substitution mutant with signal peptide replaced with M and a GGSHHHHHH at C-terminus)

Test: Ratiometric fluorescence glucose titration of fluorescent conjugates
Type: binding
Design: key to Shape (fluorescence response to glucose) / Change (fluorescence response to glucose): m, monochromatic; d, dichromatic (i.e. spectral shape change); 0, no change
Conditions: for fluorescence response to glucose: monochromatic or dichromatic emission change
Text: Semi-synthetic FRSs can be engineered by site-specifically attaching thiol-reactive, environmentally sensitive fluorophores that respond to ligand-mediated conformational changes. Identification of FRS candidates that can be used for sensing applications comprises three steps: • 1. Cysteine scan. Mutant glucose-binding proteins containing single cysteines are constructed for site-specific attachment of thiol-reactive fluorophores. […] Candidate positions fall into three classes: endosteric, replacing a residue that contacts the ligand directly; peristeric, located at the rim of the binding site; allosteric (Marvin et al., 1997, Proc Natl Acad Sci USA, 94, 4366-71; Marvin, 1998, J Am Chem Soc, 120, 7-11), located outside the binding site at sites that undergo local structural changes in concert with the hinge-bending motion. • 2. Fluorophore screening. Thiol-reactive, environmentally sensitive fluorophores are attached to each cysteine mutant prepared in step 1. • 3. Evaluation of the glucose-mediated change of all the fluorescent conjugates prepared in step 2. Responses to ligand binding in which there is both a change in fluorescence emission intensity and spectral shape are essential for chemometric applications, because such changes enable ratiometric measurements. Changes in spectral shape typically are accompanied by a shift in the wavelength of the emission intensity maxima. Three classes of fluorescent responses are possible: • i. No response. • ii. Monochromatic response (emission intensity increases or decreases without a change in spectral shape) • iii.
Determination of temperature- and ligand-dependent fluorescence landscapes. […] Temperatures were advanced in 1K steps.
Determination of emission intensity spectra.
2 For a single glucose-binding site, the fractional saturation is given by […]

[1] = tsGBP2 cysteine scan, Acrylodan conjugate
[2] = ttGBP1 homologs, 13C-equivalent mutants labeled with Acrylodan or Badan
[3] = tsGBP2 cysteine scan, Badan conjugate

Molecule	Shape (fluorescence response to glucose) [1]	Shape (fluorescence response to glucose) [3]	other results
B1	d	–	fluorescence response to glucose (listed as 13C.Acrylodan conjugate): strong dichromatic response; also recorded: strongest dichromatic response; fluorescence response to glucose (listed as Acrylodan conjugate attached to E13C): largest, wavelength-dependent changes in fluorescence emission intensities; Shape (fluorescence response to glucose) [2]: d
B2	m	–	–
B3	–	m	–
B4	d	–	–
B5	m	–	fluorescence response to glucose: strong monochromatic response
B6	–	m	–
B7	0	–	–
B8	–	m	Change (fluorescence response to glucose) (tsGBP 13C affinity mutants, Acrylodan or Badan conjugates): m/d; Shape (fluorescence response to glucose) [2]: m
